Assay results as given in patent publication US20090149389A1 (PURDUE RESEARCH FOUNDATION, published 2009).

Legend:
Assay in all cases: cell-based or functional assay
CHK1 (h) = target: T1, CHK1 (h) (human (h), UniProt O14757 1-476)
T1 sequence (looked up): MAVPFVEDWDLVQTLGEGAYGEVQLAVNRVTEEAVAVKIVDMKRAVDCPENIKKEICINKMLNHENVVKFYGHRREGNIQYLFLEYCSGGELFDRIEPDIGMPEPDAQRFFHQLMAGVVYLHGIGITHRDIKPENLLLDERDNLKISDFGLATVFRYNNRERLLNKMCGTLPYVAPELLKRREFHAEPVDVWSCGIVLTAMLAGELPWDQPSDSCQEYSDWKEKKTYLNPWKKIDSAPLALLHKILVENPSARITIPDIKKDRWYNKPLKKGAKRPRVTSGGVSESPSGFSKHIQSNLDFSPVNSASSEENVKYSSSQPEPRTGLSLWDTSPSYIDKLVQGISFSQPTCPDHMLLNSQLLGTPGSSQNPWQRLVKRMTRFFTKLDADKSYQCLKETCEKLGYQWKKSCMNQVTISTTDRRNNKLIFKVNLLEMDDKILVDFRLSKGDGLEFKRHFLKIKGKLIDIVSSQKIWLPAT

Syk (h) = Syk (h) (human (h), UniProt P43405 1-635)
Met (h) = Met (h) (human (h), UniProt P08581 974-1390, limits assumed)
Sequence of Met (h) (P08581 974-1390 limits assumed): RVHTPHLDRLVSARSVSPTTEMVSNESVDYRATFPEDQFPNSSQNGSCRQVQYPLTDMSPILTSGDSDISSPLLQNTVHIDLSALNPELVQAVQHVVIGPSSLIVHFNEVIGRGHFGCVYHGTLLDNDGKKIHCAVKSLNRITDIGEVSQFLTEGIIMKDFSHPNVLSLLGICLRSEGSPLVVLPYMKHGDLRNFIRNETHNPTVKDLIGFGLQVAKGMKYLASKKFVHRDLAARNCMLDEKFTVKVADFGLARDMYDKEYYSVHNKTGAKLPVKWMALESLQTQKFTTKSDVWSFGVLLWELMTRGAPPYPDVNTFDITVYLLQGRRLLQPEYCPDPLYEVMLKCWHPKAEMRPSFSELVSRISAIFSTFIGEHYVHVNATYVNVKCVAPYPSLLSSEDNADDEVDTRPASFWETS

GSK3β (h) = GSK3β (h) (human (h), UniProt P49841 1-420)
Sequence of GSK3β (h) (P49841 whole entry): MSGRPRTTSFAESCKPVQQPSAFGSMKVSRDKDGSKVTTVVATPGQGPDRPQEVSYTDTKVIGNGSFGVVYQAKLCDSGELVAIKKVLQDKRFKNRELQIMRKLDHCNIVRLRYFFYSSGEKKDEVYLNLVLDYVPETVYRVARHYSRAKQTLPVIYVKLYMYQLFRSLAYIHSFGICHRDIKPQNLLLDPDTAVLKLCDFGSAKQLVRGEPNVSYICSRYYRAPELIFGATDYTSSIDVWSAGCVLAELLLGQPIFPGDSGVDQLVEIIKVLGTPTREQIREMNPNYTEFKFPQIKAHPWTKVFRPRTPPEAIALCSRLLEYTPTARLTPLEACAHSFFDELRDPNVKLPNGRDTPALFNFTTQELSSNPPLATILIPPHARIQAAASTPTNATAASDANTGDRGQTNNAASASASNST

Tie2 (h) = Tie2 (h) (human (h), UniProt Q02763 771-1124, limits assumed)
Sequence of Tie2 (h) (Q02763 771-1124 limits assumed): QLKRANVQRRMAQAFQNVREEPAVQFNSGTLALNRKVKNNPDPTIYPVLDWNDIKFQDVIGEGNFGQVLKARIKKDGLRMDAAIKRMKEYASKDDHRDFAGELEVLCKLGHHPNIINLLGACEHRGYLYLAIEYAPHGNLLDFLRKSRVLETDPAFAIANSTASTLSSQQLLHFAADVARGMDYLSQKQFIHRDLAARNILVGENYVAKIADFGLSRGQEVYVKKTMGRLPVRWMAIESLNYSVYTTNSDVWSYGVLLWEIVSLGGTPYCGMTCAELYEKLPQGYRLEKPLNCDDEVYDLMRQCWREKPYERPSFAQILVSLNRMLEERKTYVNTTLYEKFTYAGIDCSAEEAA

cKit (h) = cKit (h) (human (h), UniProt P10721 544-976, limits assumed)
Sequence of cKit (h) (P10721 544-976 limits assumed): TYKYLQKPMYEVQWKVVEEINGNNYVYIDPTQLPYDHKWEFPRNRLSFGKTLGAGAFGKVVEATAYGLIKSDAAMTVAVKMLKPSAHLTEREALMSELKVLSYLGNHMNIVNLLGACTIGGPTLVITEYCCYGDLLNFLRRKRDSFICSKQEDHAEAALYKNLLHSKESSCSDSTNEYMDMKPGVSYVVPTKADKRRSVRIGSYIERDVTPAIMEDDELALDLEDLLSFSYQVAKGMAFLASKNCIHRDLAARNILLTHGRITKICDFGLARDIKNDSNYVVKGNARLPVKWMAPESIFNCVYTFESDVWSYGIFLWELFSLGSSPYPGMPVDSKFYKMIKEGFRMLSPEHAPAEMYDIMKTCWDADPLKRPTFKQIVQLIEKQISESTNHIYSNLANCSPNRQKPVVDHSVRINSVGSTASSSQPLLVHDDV

IGF-IR (h) = IGF-IR (h) (human (h), UniProt P08069 959-1367, limits assumed)
PKCδ (h) = PKCδ (h) (human (h), UniProt Q05655 1-676)
MAPKI (h) = MAPKI (h) (human (h), UniProt P28482 1-360, limits assumed)
JAK3 (h) = JAK3 (h) (human (h), UniProt P52333 781-1124, limits assumed)
Sequence of JAK3 (h) (P52333 781-1124 limits assumed): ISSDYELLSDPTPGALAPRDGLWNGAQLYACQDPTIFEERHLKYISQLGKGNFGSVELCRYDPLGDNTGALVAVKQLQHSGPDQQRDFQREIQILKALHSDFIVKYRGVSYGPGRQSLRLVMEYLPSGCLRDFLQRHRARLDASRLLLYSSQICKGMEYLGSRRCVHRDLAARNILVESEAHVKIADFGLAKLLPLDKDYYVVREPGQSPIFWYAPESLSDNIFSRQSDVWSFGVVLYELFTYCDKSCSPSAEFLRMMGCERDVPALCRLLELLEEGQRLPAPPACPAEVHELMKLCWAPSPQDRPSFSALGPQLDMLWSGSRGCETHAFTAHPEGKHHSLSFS

IRAK4 (h) = target: T2, IRAK4 (h) (human (h), UniProt Q9NWZ3 1-460, limits assumed)
T2 sequence (looked up): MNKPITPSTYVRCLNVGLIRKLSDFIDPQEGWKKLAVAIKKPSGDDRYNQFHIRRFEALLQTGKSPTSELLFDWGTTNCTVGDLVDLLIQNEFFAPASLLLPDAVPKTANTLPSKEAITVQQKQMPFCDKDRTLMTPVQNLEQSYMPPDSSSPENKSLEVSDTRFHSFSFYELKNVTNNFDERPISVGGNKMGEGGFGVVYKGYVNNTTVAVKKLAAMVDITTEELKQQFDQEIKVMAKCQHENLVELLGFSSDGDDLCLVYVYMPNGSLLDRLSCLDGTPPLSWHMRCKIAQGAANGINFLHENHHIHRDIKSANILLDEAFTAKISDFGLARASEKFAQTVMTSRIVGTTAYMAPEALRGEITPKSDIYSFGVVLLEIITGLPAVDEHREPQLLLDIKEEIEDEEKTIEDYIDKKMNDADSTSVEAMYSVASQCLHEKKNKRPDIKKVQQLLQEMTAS

PhKγ2 (h) = target: T3, PhKγ2 (h) (human (h), UniProt P15735 1-406)
T3 sequence (looked up): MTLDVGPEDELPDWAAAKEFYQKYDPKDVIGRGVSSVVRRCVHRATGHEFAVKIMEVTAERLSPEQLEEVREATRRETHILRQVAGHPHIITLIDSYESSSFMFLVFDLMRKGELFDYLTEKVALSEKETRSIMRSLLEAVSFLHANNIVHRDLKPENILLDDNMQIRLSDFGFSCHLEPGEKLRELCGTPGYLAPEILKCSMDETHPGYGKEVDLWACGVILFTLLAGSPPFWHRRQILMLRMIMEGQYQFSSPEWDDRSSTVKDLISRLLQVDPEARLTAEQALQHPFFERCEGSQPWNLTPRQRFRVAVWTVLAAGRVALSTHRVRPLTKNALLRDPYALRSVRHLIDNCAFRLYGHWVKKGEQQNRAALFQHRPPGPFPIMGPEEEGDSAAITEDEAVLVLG

MEKI (h) = MEKI (h) (human (h), UniProt Q02750 1-393)
Rsk2 (h) = Rsk2 (h) (human (h), UniProt P51812 1-740)
Sequence of Rsk2 (h) (P51812 whole entry): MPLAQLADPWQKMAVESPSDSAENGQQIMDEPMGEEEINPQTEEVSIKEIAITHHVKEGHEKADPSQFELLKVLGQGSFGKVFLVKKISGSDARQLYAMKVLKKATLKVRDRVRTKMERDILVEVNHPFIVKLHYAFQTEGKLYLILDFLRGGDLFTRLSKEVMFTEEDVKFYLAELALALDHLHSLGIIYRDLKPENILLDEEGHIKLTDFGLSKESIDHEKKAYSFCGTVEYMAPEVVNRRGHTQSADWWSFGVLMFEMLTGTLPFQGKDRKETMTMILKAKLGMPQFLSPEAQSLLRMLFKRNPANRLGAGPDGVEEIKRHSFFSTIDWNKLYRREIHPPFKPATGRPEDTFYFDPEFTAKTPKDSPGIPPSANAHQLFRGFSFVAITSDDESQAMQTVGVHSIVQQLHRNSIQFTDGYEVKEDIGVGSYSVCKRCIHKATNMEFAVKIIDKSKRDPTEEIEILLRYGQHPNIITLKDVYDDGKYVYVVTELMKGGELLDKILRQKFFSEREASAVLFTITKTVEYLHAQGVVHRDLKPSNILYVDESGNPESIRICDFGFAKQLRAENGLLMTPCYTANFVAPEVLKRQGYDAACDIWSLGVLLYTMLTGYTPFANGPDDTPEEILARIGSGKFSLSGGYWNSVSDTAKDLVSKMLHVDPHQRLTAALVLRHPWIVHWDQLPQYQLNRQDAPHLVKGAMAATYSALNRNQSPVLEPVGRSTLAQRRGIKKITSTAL

CKIB (h) = CKIB (h) (human (h))
CaMKI (h) = CaMKI (h) (human (h), UniProt Q14012 1-370, limits assumed)
Sequence of CaMKI (h) (Q14012 whole entry): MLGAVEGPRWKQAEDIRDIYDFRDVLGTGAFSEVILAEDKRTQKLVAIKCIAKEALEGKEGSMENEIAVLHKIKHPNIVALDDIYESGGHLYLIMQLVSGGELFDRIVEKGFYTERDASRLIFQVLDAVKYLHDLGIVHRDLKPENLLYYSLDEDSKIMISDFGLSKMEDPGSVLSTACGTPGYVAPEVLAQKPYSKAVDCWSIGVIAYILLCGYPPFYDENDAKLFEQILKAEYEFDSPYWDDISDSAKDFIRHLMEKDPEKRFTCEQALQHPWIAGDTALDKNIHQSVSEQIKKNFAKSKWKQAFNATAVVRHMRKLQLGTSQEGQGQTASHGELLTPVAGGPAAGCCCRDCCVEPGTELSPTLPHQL

EGFR (h) = EGFR (h) (human (h), UniProt P00533 696-1210, limits assumed)
Abl (h) = Abl (h) (human (h), UniProt P00519 27-1130, limits assumed)
Sequence of Abl (h) (P00519 27-1130 limits assumed): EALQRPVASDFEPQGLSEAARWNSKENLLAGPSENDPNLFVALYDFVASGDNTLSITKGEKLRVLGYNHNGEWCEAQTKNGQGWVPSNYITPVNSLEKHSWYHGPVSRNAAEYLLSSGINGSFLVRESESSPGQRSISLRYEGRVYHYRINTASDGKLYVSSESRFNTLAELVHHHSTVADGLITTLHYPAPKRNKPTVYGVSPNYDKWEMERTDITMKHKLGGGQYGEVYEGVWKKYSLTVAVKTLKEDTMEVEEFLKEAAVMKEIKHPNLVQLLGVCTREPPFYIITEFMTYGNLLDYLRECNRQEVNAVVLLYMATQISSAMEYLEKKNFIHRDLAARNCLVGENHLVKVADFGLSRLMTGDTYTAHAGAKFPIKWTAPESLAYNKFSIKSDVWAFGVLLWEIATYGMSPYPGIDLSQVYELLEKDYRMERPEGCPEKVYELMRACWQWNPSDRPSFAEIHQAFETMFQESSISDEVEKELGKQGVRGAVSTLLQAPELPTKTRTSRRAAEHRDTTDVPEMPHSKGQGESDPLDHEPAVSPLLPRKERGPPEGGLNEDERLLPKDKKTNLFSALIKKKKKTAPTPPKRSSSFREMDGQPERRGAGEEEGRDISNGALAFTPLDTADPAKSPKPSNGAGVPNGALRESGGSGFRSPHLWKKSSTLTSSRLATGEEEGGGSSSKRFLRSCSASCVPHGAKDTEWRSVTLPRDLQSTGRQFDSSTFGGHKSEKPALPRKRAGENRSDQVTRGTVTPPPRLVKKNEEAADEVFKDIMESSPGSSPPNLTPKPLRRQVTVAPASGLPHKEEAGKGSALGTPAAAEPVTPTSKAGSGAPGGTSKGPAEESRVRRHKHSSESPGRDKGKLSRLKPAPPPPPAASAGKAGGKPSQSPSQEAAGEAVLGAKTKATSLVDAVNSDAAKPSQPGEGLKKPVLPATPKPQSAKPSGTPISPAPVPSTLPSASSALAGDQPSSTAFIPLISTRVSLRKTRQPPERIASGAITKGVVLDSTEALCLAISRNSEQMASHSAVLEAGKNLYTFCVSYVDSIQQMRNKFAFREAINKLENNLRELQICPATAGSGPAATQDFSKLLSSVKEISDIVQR

MLCK (h) = MLCK (h) (human (h))
KDR (tl) = KDR (tl) (UniProt P35968 790-1356, limits assumed)
Sequence of KDR (tl) (P35968 790-1356 limits assumed): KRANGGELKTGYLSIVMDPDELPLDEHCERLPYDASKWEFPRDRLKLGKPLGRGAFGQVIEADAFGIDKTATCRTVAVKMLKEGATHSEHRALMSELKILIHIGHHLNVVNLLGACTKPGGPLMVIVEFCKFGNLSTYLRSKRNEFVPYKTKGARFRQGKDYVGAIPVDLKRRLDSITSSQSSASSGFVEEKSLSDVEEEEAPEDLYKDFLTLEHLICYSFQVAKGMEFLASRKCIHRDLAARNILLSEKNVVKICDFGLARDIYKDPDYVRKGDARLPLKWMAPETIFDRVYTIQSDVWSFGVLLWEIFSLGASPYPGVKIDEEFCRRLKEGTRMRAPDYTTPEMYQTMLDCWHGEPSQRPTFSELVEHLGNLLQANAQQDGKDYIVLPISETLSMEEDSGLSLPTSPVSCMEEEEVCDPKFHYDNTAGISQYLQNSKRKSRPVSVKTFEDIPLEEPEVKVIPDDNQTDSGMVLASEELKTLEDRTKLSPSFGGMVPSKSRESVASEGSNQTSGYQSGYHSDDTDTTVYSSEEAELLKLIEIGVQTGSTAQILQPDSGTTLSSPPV

B1: WLRRIKAWLRRIKALNRQLGVAA (peptide)
peptide: WLRRIKAWLRRIKALNRQLGVAA
**Q.** What does the source list for B1?
**A.** Profile-1 @ = 30 µm (kinase profiler assay) (CHK1 (h)): 31; Profile-1 @ = 30 µm (kinase profiler assay) (Syk (h)): 19; Profile-1 @ = 30 µm (kinase profiler assay) (Met (h)): 30; Profile-1 @ = 30 µm (kinase profiler assay) (GSK3β (h)): 129; Profile-1 @ = 30 µm (kinase profiler assay) (Tie2 (h)): 17; Profile-1 @ = 30 µm (kinase profiler assay) (cKit (h)): 23; Profile-1 @ = 30 µm (kinase profiler assay) (IGF-IR (h)): 227; Profile-1 @ = 30 µm (kinase profiler assay) (PKCδ (h)): 11; Profile-1 @ = 30 µm (kinase profiler assay) (MAPKI (h)): 121; Profile-1 @ = 30 µm (kinase profiler assay) (JAK3 (h)): 85; Profile-1 @ = 30 µm (kinase profiler assay) (IRAK4 (h)): 12; Profile-1 @ = 30 µm (kinase profiler assay) (PhKγ2 (h)): 15; Profile-1 @ = 30 µm (kinase profiler assay) (MEKI (h)): 14; Profile-1 @ = 30 µm (kinase profiler assay) (Rsk2 (h)): 14; Profile-1 @ = 30 µm (kinase profiler assay) (CKIB (h)): 52; Profile-1 @ = 30 µm (kinase profiler assay) (CaMKI (h)): 9; Profile-1 @ = 30 µm (kinase profiler assay) (EGFR (h)): 10; Profile-1 @ = 30 µm (kinase profiler assay) (Abl (h)): 24; Profile-1 @ = 30 µm (kinase profiler assay) (MLCK (h)): 4; Profile-1 @ = 30 µm (kinase profiler assay) (KDR (tl)): 27
